{"source": "patent US20140120095A1", "assay_in_all_cases": "cell-based or functional assay", "key": {"[1]": {"molecular_target": "VEGF (UniProt P15692)", "sequence (P15692 other isoform, or with tags, fused parts or gaps limits assumed)": "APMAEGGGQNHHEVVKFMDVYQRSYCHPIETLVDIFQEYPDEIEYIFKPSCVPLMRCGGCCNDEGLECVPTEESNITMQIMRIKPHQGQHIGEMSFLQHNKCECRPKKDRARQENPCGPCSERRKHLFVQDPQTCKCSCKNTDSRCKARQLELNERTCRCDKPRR"}, "[2]": {"molecular_target": "DII4-His (C-terminal His-tagged human DII4, amino acid 27-524) (human) (UniProt Q9NR61)", "sequence (Q9NR61 25-522)": "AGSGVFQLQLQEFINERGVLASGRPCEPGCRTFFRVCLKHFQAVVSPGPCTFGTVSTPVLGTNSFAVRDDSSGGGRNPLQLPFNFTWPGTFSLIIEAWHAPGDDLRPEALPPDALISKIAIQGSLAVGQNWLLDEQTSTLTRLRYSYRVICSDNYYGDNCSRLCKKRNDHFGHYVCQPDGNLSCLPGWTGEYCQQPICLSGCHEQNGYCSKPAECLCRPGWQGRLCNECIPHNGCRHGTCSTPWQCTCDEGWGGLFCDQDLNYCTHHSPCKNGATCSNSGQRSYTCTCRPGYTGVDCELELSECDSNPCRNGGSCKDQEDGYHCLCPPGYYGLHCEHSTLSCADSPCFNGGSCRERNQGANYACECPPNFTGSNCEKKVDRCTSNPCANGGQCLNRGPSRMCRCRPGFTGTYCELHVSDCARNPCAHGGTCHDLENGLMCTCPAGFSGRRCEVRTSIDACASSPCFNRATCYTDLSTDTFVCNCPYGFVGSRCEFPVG"}, "[3]": {"molecular_target": "VEGF (used to stimulate HUVEC cells) (UniProt P15692)", "sequence (P15692 other isoform, or with tags, fused parts or gaps limits assumed)": "as the sequence (P15692 other isoform, or with tags, fused parts or gaps limits assumed) above"}}, "data": [{"binder": "VEGFBII23B04 (VHH, not shown: small tags and cut ends) VHH: EVQLVESGGGLVQTGDSLRLSCEVSGRTFSSYSMGWFRQAQGKEREFVVAISKGGYKYDSVSLEGRFTISKDNAKNTVYLQINSLKPEDTAVYYCASSRAYGSSRLRLADTYEYWGQGTQVTVSS", "values": [{"measurement": "% inhibition, VEGF HUVEC Erk phosphorylation assay, +HSA", "setting": "[1]", "result": 93, "unit": "%"}, {"measurement": "% inhibition, VEGF HUVEC Erk phosphorylation assay, -HSA", "setting": "[1]", "result": 91, "unit": "%"}, {"measurement": "IC50 (nM), VEGF HUVEC Erk phosphorylation assay, +HSA", "setting": "[1]", "result": 0.6, "unit": "nM"}, {"measurement": "IC50 (nM), VEGF HUVEC Erk phosphorylation assay, -HSA", "setting": "[1]", "result": 0.69, "unit": "nM"}]}, {"binder": "DLLBII129B05 (VHH, not shown: small tags and cut ends) VHH: EVQLVESGGGLVQAGGSLRLSCAASGRTFSSYAMAWYRQAPGKEREYVAAIRWSGGTAYYADSVQGRFTISRDNAKNTVYLQMNSLKPEDTAVYYCANRAPDTRLAPYEYDHWGQGTQVTVSS", "values": [{"measurement": "IC50 (nM), DII4-mediated HUVEC proliferation assay, +HSA", "setting": "[2]", "result": 3.52, "unit": "nM"}, {"measurement": "IC50 (nM), DII4-mediated HUVEC proliferation assay, -HSA", "setting": "[2]", "result": 2.32, "unit": "nM"}]}, {"binder": "VEGFBII23A06 (VHH, not shown: small tags and cut ends) VHH: EVQLVESGGGLVQPGDSLKLSCAFSGRTFSSYSMGWFRQAQGKEREFVVAISSGGFIYDAVSLEGRFTISRDNTKNTVYLQTPSLKPEDTAVYYCAASRAYGSSRLRLADTYDYWGQGTQVTVSS", "values": [{"measurement": "% inhibition, VEGF HUVEC proliferation assay", "setting": "[3]", "result": 73, "unit": "%"}, {"measurement": "IC50, VEGF HUVEC proliferation assay", "setting": "[3]", "result": 4.29, "unit": "nM"}]}]}
